In article PMC5179001:

System: RovA (Yersinia pseudotuberculosis (YPIII?))
Assay: EMSA
Settings: […]) at 25 C or 37 C, buffer

| Substance | K half |
| --- | --- |
| rovA promoter fragment BS II (repressing site) | 40.7 nM |
| rovA promoter fragment BS I (activating site) | 6.01 nM |
